B1: TPPP (parent)
chain: LCKDCQVIDGRNVTVTDVDIVFSK
B2: CSNK1G1 (parent)
chain: GSLPWQGLKADTLKERYQKIGDTK
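Also: lentivirally expressed fusions sorted by FACS into six bins by GFP to DsRed ratio, PSI derived from sequencing read proportions per bin multiplied by bin number.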

The variants in the first data set derive from B1. The data set can be described thus: protein stability index of a GFP-peptide fusion (GPS, HEK-293T) (PSI 1-6); higher = more stable. Conditions: c terminus: a fixed tail appended.
With LCKDCQVIDGRNVTRTDVDIVFSK [V15R], the protein stability index worked out at 3.44. For LCKDCQVIDGRNVTITDVDIVFSK [V15I], the protein stability index was determined as 2.02. Turning to LCKDCQVIIGRNVTVTDVDIVFSK [D9I], the protein stability index was determined as 1.66. Same read-out and setting: under LCKDCQVIMGRNVTVTDVDIVFSK [D9M] stands 2.19; under LCKDCQVIHGRNVTVTDVDIVFSK [D9H], 2.07.

Turning to LCKDCQVICGRNVTVTDVDIVFSK [D9C], the protein stability index turned out to be 2.05. Still for that read-out and setting: under LCKDCQVIFGRNVTVTDVDIVFSK [D9F] stands 1.9; under LCKDCQVIDTRNVTVTDVDIVFSK [G10T], 2.52.

LCKDCQVIDYRNVTVTDVDIVFSK [G10Y]: the protein stability index amounted to 1.99. Same read-out and setting: under LCKDCQVIDLRNVTVTDVDIVFSK [G10L] stands 1.61; under LCKDCQVIDERNVTVTDVDIVFSK [G10E], 2.55. Still for that read-out and setting: the result for LCKDCQVIDWRNVTVTDVDIVFSK [G10W] reads 2.33; that for LCKDCQVIDSRNVTVTDVDIVFSK [G10S], 2.74. LCKDCQVIDIRNVTVTDVDIVFSK [G10I]: the protein stability index amounted to 1.3. As for LCKDCQVIDCRNVTVTDVDIVFSK [G10C], the protein stability index came out at 2.14. On the same count and under the same terms, the result for YCKDCQVIDGRNVTVTDVDIVFSK [L1Y] reads 2.08; that for DCKDCQVIDGRNVTVTDVDIVFSK [L1D], 4.05; that for HCKDCQVIDGRNVTVTDVDIVFSK [L1H], 2.7. Same read-out and setting: the result for WCKDCQVIDGRNVTVTDVDIVFSK [L1W] reads 1.89; that for FCKDCQVIDGRNVTVTDVDIVFSK [L1F], 2.25.

For the variant TCKDCQVIDGRNVTVTDVDIVFSK [L1T], the protein stability index was determined as 2.73. Same read-out and setting: the result for LCKDCQVIDGRNVTVTDVEIVFSK [D19E] reads 1.79.

Consider LCKDCQVIDGRNVTVTDVQIVFSK [D19Q], for which the protein stability index turned out to be 1.65. For the variant LCKDCQVIDGRNVTVTDVYIVFSK [D19Y], the protein stability index was found to be 1.47.

With LCKDCQVIDGRNVTVTDVSIVFSK [D19S], the protein stability index is 2.39. In the case of LCKDCQVIDGRNVTVTDVDNVFSK [I20N], the protein stability index worked out at 3.5. The same measure, in the same setting: the result for LCKDCQVIDGRNVTVTDVDFVFSK [I20F] reads 2.38; that for LCKDCQVIDGRNVTVTDVDTVFSK [I20T], 3.06; that for LCKDCQVIDGRNVTVTDVDQVFSK [I20Q], 3.79. On the same count and under the same terms, under LCKDCQVIDGRNVTVTDVDSVFSK [I20S] stands 2.55; under LCIDCQVIDGRNVTVTDVDIVFSK [K3I], 1.05; under LCGDCQVIDGRNVTVTDVDIVFSK [K3G], 3.34.

For the variant LCQDCQVIDGRNVTVTDVDIVFSK [K3Q], the protein stability index came out at 2.18.

Take LCHDCQVIDGRNVTVTDVDIVFSK [K3H]: the protein stability index stood at 2.52. Same read-out and setting: the result for LCYDCQVIDGRNVTVTDVDIVFSK [K3Y] reads 1.91.

In a further data set the parent is B2. Described as above. The following applies: c terminus: a fixed tail appended.
As for GSLPWQGLKNDTLKERYQKIGDTK [A10N], the protein stability index was 4.62. Still for that read-out and setting: the result for GSLPWQGLKLDTLKERYQKIGDTK [A10L] reads 3.32; that for GSLPLQGLKADTLKERYQKIGDTK [W5L], 4.62; that for GSLPKQGLKADTLKERYQKIGDTK [W5K], 4.74. The same measure, in the same setting: under GSLPQQGLKADTLKERYQKIGDTK [W5Q] stands 4.38. On the same count and under the same terms, under GSLPWQGLKADTLKERDQKIGDTK [Y17D] stands 4.99. Turning to GSLPWQGLKADTLKERLQKIGDTK [Y17L], the protein stability index was 4.19. Still for that read-out and setting: the result for GSLPWQGLKADTLKERNQKIGDTK [Y17N] reads 4.98; that for GSLPWQGLKADTYKERYQKIGDTK [L13Y], 3.72. GSLPWQGLKADTHKERYQKIGDTK [L13H]: the protein stability index stood at 4.64. On the same count and under the same terms, under GSLPWQGLKADTLNERYQKIGDTK [K14N] stands 4.58. Same read-out and setting: under GSLPWQGLKADTLAERYQKIGDTK [K14A] stands 4.55. Consider GSLPWQGLKADTLMERYQKIGDTK [K14M], for which the protein stability index was determined as 3.36. On the same count and under the same terms, under GSLPWQGLKADTLKERYQKIGSTK [D22S] stands 4.05. On the same count and under the same terms, the result for GSLPWQGLKADTLKERYQKIGMTK [D22M] reads 3; that for GRLPWQGLKADTLKERYQKIGDTK [S2R], 3.83; that for GMLPWQGLKADTLKERYQKIGDTK [S2M], 4.07.

As to GSWPWQGLKADTLKERYQKIGDTK [L3W], the protein stability index was found to be 3.41. The same measure, in the same setting: the result for GSFPWQGLKADTLKERYQKIGDTK [L3F] reads 3.71; that for GSLPWQGLKADTLKSRYQKIGDTK [E15S], 3.47.

On to GSLPWQGLKADTLKRRYQKIGDTK [E15R], for which the protein stability index stood at 3.98.

For the variant GSLPWQGLKADTLKYRYQKIGDTK [E15Y], the protein stability index is 3.1. As for GSLPWQGLKADTLKLRYQKIGDTK [E15L], the protein stability index turned out to be 3.66. Same read-out and setting: under GSLDWQGLKADTLKERYQKIGDTK [P4D] stands 4.37. Same read-out and setting: the result for GSLIWQGLKADTLKERYQKIGDTK [P4I] reads 3.67; that for GSLYWQGLKADTLKERYQKIGDTK [P4Y], 3.73. Still for that read-out and setting: the result for GSLPWQGLYADTLKERYQKIGDTK [K9Y] reads 4.13; that for GSLPWQGLHADTLKERYQKIGDTK [K9H], 4.24; that for GSLPWQGLTADTLKERYQKIGDTK [K9T], 4.35. Consider GSLPWQGLPADTLKERYQKIGDTK [K9P], for which the protein stability index was 5.08. On the same count and under the same terms, the result for GSLPWQGLKADTLKERYQKIGDTH [K24H] reads 3.6; that for GSLPWQGLKADTLKERYQKIGDTT [K24T], 4.08. The same measure, in the same setting: under GSLPWQGEKADTLKERYQKIGDTK [L8E] stands 4.44. Still for that read-out and setting: under GSLPWQGAKADTLKERYQKIGDTK [L8A] stands 3.73. For the variant GSLPWQGLKADTLKEHYQKIGDTK [R16H], the protein stability index worked out at 4.35. In the case of GSLPWQGLKADTLKESYQKIGDTK [R16S], the protein stability index stood at 4.71. GSLPWQGLKADTLKEKYQKIGDTK [R16K]: the protein stability index came out at 4.23.

Take GSLPWQGLKADTLKERYDKIGDTK [Q18D]: the protein stability index was found to be 4.47. The same measure, in the same setting: under GSLPWQGLKADRLKERYQKIGDTK [T12R] stands 4.33; under GSLPWQGLKADPLKERYQKIGDTK [T12P], 4.86.

Regarding GSLPWQGLKADTLKERYQKRGDTK [I20R], the protein stability index turned out to be 4.2. Take GSLPWQGLKADTLKERYQKYGDTK [I20Y]: the protein stability index was determined as 4.29. With GSLPWQGLKADTLKERYQKWGDTK [I20W], the protein stability index was 3.62. The same measure, in the same setting: under GSLPWQGLKADTLKERYQKTGDTK [I20T] stands 4.46. The same measure, in the same setting: under GSLPWQGLKADTLKERYQKIGDIK [T23I] stands 3.81; under GSLPWQGLKADTLKERYQKIGDAK [T23A], 4.46; under GSLPWQGLKADTLKERYQKIGDHK [T23H], 4.08. Still for that read-out and setting: under GSLPWQRLKADTLKERYQKIGDTK [G7R] stands 3.56.

On to GSLPWQDLKADTLKERYQKIGDTK [G7D], for which the protein stability index was found to be 4.33.

For GSLPWQILKADTLKERYQKIGDTK [G7I], the protein stability index was determined as 3.52. Still for that read-out and setting: under GSLPWQGLKACTLKERYQKIGDTK [D11C] stands 3.63.

As to GSLPWQGLKAVTLKERYQKIGDTK [D11V], the protein stability index was 2.8.

In the case of TSLPWQGLKADTLKERYQKIGDTK [G1T], the protein stability index stood at 4.04. Take WSLPWQGLKADTLKERYQKIGDTK [G1W]: the protein stability index was 3.6. Still for that read-out and setting: the result for HSLPWQGLKADTLKERYQKIGDTK [G1H] reads 4; that for LSLPWQGLKADTLKERYQKIGDTK [G1L], 3.89.

As for GSLPWWGLKADTLKERYQKIGDTK [Q6W], the protein stability index is 2.74. Take GSLPWQGLKADTLKERYQKITDTK [G21T]: the protein stability index amounted to 3.83. The same measure, in the same setting: under GSLPWQGLKADTLKERYQKIHDTK [G21H] stands 4.15.

Source of the values: the supplement of paper PMC10567573.
